Assay results taken from article PMC5328894, “Characterization of a Bacillus thuringiensis chitinase that binds to cellulose and chitin” (AMB Express, 2017).

Substrate: CC(=O)N[C@H]1[C@H](Oc2ccc([N+](=O)[O-])cc2)O[C@H](CO)[C@@H](O[C@@H]2O[C@H](CO)[C@@H](O)[C@H](O)[C@H]2NC(C)=O)[C@@H]1O
Experiment: initial-rate hydrolysis, Michaelis-Menten fit
Format: biochemical, Bacillus thuringiensis
Settings: 50 mM MES-NaOH, pH 6.0, 50 °C, 0.05-0.8 mM substrate
Source text: initial-rate hydrolysis, Michaelis-Menten fit on BthChi74

B1: BthChi74 (Bacillus thuringiensis serovar israelensis ATCC 35646) (protein)
chain: MAMRSQKFTLLLLSLLLFLPLFLTNFITPNLALADSPKQSQKIVGYFPSWGVYGRNYQVADIDASKLTHLNYAFADICWKGKHGNPSTHPDNPNKQTWNCKESGVPLQNKEVPNGTLVLGEPWADVTKSYPGSGTTWEDCDKYARCGNFGELKRLKAKYPHLKTIISVGGWTWSNRFSDMAADEKTRKVFAESTVAFLRAYGFDGVDLDWEYPGVETIPGGSYRPEDKQNFTLLLQDVRNALNKAGAEDGKQYLLTIASGASQRYADHTELKKISQILDWINIMTYDFHGGWEATSNHNAALYKDPNDPAANTNFYVDGAIDVYTNEGVPVDKLVLGVPFYGRGWKSCGKENNGQYQPCKPGSDGKLASKGTWDDYSTGDTGVYDYGDLTANYVNKNGFVRYWNDTAKVPYLYNATTGTFISYDDNESMKYKTDYIKTKGLSGAMFWELSGDCRTSPKYSCSGPKLLDTLVKELLGGPINQKDTEPPTNVKNIIVTNKTSSSVQLSWTASTDNVGVTEYEITAGEEKWSATTNSITIKNLKPNTEYTFSVIAKDASGNKSHPTALTVKTDEANTTPPDGNGTATFSVTSNWGSGYNFSIIIKNNGTIPIKNWKLEFDYSGNLTQVWDSKISSKTNNHYVITNAGWNGEIPPGGSITIGGAGTGNPAELLNAVISEN
notes: GH18 catalytic domain + FNIII + CBM2; pET21d(+), E. coli BL21(DE3); vector-derived additions at N- and C-termini, C-terminal His6 designed but probably lost by processing; expected 76 kDa, 74 kDa on SDS-PAGE
  Km: 159 ± 0.5 µM
  kcat: 1.5 ± 0.02 s⁻¹
  kcat/Km: 10000 M⁻¹ s⁻¹
